Test results as given in the supplement of paper PMC9112550, “Optimization of the antimicrobial peptide Bac7 by deep mutational scanning” (BMC Biology, 2022).

test system: Escherichia coli TOP10; experiment: shrunken log2 fold change of peptide-encoding DNA abundance (4.5 h post-induction vs induction); higher = less antimicrobial activity (less host growth inhibition); details: time post-induction: 4.5 h; library: site-saturation at positions 5, 18, 19, 20
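Further: peptides expressed intracellularly from a pBAD plasmid library in pooled LB shake-flask culture, induced with 0.3% L-arabinose, DNA abundance read by NGS, three biological replicates, DESeq2 with apeglm shrinkage.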

Sequence	shrunken log2 fold change
RRIRCRPPRLPRPRPRPMEIPRP	-1.16
RRIRWRPPRLPRPRPRPMPSPRP	-0.116
RRIRMRPPRLPRPRPRPVMHPRP	0.154
RRIRGRPPRLPRPRPRPYYRPRP	-0.0655
RRIRDRPPRLPRPRPRPKNNPRP	-0.556
RRIRERPPRLPRPRPRPLDNPRP	-0.487
RRIRTRPPRLPRPRPRPLNLPRP	-0.548
RRIRVRPPRLPRPRPRPDLHPRP	-0.0023
RRIRMRPPRLPRPRPRPVYEPRP	0.352
RRIRDRPPRLPRPRPRPRNMPRP	-0.602
RRIRTRPPRLPRPRPRPPMMPRP	-0.121
RRIRDRPPRLPRPRPRPWQDPRP	-0.0397
RRIRYRPPRLPRPRPRPSVCPRP	-0.769
RRIRPRPPRLPRPRPRPNARPRP	0.677
RRIRFRPPRLPRPRPRPICMPRP	-0.214
RRIRYRPPRLPRPRPRPFMDPRP	-0.2
RRIRNRPPRLPRPRPRPIYIPRP	0.0152
RRIRTRPPRLPRPRPRPHMWPRP	-0.302
RRIRTRPPRLPRPRPRPDDCPRP	-0.0459
RRIRVRPPRLPRPRPRPMTNPRP	-0.256
RRIRKRPPRLPRPRPRPFDPPRP	-0.145
RRIRLRPPRLPRPRPRPLEHPRP	0.0313
RRIRRRPPRLPRPRPRPFCNPRP	-0.259
RRIRTRPPRLPRPRPRPWRQPRP	0.0481
RRIRMRPPRLPRPRPRPECAPRP	3.56

Sequence	shrunken log2 fold change
RRIRGRPPRLPRPRPRPSHLPRP	-0.158
RRIRNRPPRLPRPRPRPLWRPRP	0.179
RRIRLRPPRLPRPRPRPHSQPRP	-0.0709
RRIRDRPPRLPRPRPRPHSQPRP	-0.0254
RRIRMRPPRLPRPRPRPYFVPRP	0.0021
RRIRKRPPRLPRPRPRPAHQPRP	0.162
RRIRYRPPRLPRPRPRPVTIPRP	-0.0242
RRIRRRPPRLPRPRPRPPYEPRP	0.492
RRIRWRPPRLPRPRPRPKSEPRP	0.502
RRIRRRPPRLPRPRPRPYSGPRP	-0.000826
RRIRKRPPRLPRPRPRPTKRPRP	0.697
RRIRPRPPRLPRPRPRPPSKPRP	0.105
RRIRWRPPRLPRPRPRPAYCPRP	-0.0978
RRIRFRPPRLPRPRPRPDPEPRP	-0.0327
RRIRHRPPRLPRPRPRPSKRPRP	0.0594
RRIRLRPPRLPRPRPRPCQCPRP	-0.672
RRIRFRPPRLPRPRPRPVAAPRP	1.41
RRIRARPPRLPRPRPRPKSRPRP	0.474
RRIRARPPRLPRPRPRPGHWPRP	0.628
RRIRYRPPRLPRPRPRPCTVPRP	-0.0835
RRIRHRPPRLPRPRPRPGCIPRP	-1.21
RRIRDRPPRLPRPRPRPYVYPRP	-0.0147
RRIRIRPPRLPRPRPRPSQIPRP	-0.142
RRIRNRPPRLPRPRPRPHSVPRP	-0.015
RRIRHRPPRLPRPRPRPLRYPRP	-0.388

Sequence	shrunken log2 fold change
RRIRVRPPRLPRPRPRPNDKPRP	-0.351
RRIRTRPPRLPRPRPRPCVPPRP	-0.109
RRIRTRPPRLPRPRPRPFRPPRP	0.0775
RRIRIRPPRLPRPRPRPAAKPRP	0.463
RRIRKRPPRLPRPRPRPRNHPRP	0.197
RRIRQRPPRLPRPRPRPKEPPRP	0.0201
RRIRDRPPRLPRPRPRPAFDPRP	0.284
RRIRPRPPRLPRPRPRPFSFPRP	-0.0166
RRIRCRPPRLPRPRPRPTPWPRP	0.49
RRIRIRPPRLPRPRPRPQVTPRP	-0.4
RRIRTRPPRLPRPRPRPRKCPRP	-0.1
RRIRPRPPRLPRPRPRPSSHPRP	-0.417
RRIRSRPPRLPRPRPRPRNFPRP	0.146
RRIRLRPPRLPRPRPRPNLPPRP	-0.508
RRIRCRPPRLPRPRPRPYRTPRP	-0.132
RRIRCRPPRLPRPRPRPSLRPRP	-0.305
RRIRARPPRLPRPRPRPHLVPRP	0.0104
RRIRQRPPRLPRPRPRPPQSPRP	0.671
RRIRFRPPRLPRPRPRPWQWPRP	0.00967
RRIRKRPPRLPRPRPRPVKLPRP	-0.0408
RRIRPRPPRLPRPRPRPSRQPRP	0.357
RRIRNRPPRLPRPRPRPDKWPRP	-0.258
RRIRPRPPRLPRPRPRPTTWPRP	0.176
RRIRERPPRLPRPRPRPWANPRP	-0.0497
RRIRTRPPRLPRPRPRPGQGPRP	0.0576

Sequence	shrunken log2 fold change
RRIRRRPPRLPRPRPRPDIAPRP	-0.0619
RRIRPRPPRLPRPRPRPRPGPRP	0.555
RRIRIRPPRLPRPRPRPRFHPRP	-0.42
RRIRYRPPRLPRPRPRPGSNPRP	-0.0401
RRIRNRPPRLPRPRPRPIHVPRP	-0.224
RRIRCRPPRLPRPRPRPFIRPRP	-0.249
RRIRHRPPRLPRPRPRPVFAPRP	0.12
RRIRCRPPRLPRPRPRPHQDPRP	-0.365
RRIRSRPPRLPRPRPRPTCMPRP	0.0286
RRIRPRPPRLPRPRPRPETFPRP	0.176
RRIRDRPPRLPRPRPRPYRDPRP	-0.444
RRIRHRPPRLPRPRPRPSVYPRP	-0.47
RRIRVRPPRLPRPRPRPKTAPRP	0.0988
RRIRARPPRLPRPRPRPMWMPRP	0.0208
RRIRIRPPRLPRPRPRPWIKPRP	-0.0222
RRIRYRPPRLPRPRPRPQPKPRP	-0.0232
RRIRMRPPRLPRPRPRPSCPPRP	-0.0916
RRIRMRPPRLPRPRPRPHIYPRP	-0.289
RRIRTRPPRLPRPRPRPHCNPRP	-0.453
RRIRYRPPRLPRPRPRPFVLPRP	-0.855
RRIRSRPPRLPRPRPRPCFRPRP	-0.349
RRIRVRPPRLPRPRPRPNYKPRP	-0.509
RRIRARPPRLPRPRPRPNYRPRP	0.0835
RRIRPRPPRLPRPRPRPDYMPRP	-0.334
RRIRKRPPRLPRPRPRPIGLPRP	0.0815

Sequence	shrunken log2 fold change
RRIRIRPPRLPRPRPRPQSEPRP	-0.219
RRIRLRPPRLPRPRPRPDYFPRP	-0.146
RRIRTRPPRLPRPRPRPGIVPRP	-0.184
RRIRCRPPRLPRPRPRPVKYPRP	-0.596
RRIRPRPPRLPRPRPRPPNWPRP	0.534
RRIRFRPPRLPRPRPRPKWQPRP	0.000886
RRIRTRPPRLPRPRPRPFVLPRP	-0.296
RRIRARPPRLPRPRPRPMCCPRP	0.335
RRIRRRPPRLPRPRPRPELCPRP	0.101
RRIRFRPPRLPRPRPRPGIIPRP	-0.139
RRIRTRPPRLPRPRPRPGVAPRP	0.639
RRIRIRPPRLPRPRPRPSITPRP	0.141
RRIRVRPPRLPRPRPRPPDRPRP	0.379
RRIRSRPPRLPRPRPRPYRLPRP	-0.279
RRIRYRPPRLPRPRPRPHIFPRP	-0.255
RRIRTRPPRLPRPRPRPDHAPRP	0.283
RRIRCRPPRLPRPRPRPYWPPRP	-0.158
RRIRARPPRLPRPRPRPSGHPRP	0.168
RRIRIRPPRLPRPRPRPYWQPRP	-0.774
RRIRARPPRLPRPRPRPDLGPRP	0.438
RRIRFRPPRLPRPRPRPTYNPRP	-0.767
RRIRKRPPRLPRPRPRPRTLPRP	0.454
RRIRKRPPRLPRPRPRPDFYPRP	-0.0302
RRIRNRPPRLPRPRPRPNSQPRP	-0.265
RRIRDRPPRLPRPRPRPCVSPRP	0.0278
